Patent publication US20110268733A1 (Daiichi Sankyo, published 2011)
Positions count from the first letter of the chain named. In names and notes the source's numbering stands. Values belong to the binder of their own block, whether it stands above or below them.

Legend:
human Siglec-15-Fc [1] = biological target: T1, human Siglec-15-Fc (human); assay: ELISA, human Siglec-15-Fc immobilized at 5 µg/ml, antibody 1.28 to 20,000 ng/ml
T1 construct: Expressed in 293-F cells, purified on Protein A; also called soluble human Siglec-15-Fc; human Siglec-15-Fc protein
T1 sequence (chain, as listed by the source limits assumed): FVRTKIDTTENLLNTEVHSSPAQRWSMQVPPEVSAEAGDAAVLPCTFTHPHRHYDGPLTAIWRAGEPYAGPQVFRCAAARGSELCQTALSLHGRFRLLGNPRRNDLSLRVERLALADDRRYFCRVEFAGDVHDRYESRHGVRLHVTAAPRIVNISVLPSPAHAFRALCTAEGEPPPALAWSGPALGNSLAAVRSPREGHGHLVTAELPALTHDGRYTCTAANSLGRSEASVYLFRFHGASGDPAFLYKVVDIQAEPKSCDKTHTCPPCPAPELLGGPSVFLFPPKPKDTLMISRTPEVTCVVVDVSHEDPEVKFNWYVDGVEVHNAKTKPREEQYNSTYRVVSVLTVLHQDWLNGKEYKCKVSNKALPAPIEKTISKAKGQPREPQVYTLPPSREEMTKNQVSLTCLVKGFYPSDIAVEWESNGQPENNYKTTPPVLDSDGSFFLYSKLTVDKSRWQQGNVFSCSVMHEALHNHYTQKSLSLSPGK
Method: The property of the rat anti-mouse Siglec-15 monoclonal antibody binding to human Siglec-15 protein was evaluated by an ELISA method. The human Siglec-15-Fc protein (subjected to replacement with A-PBS) produced in b) of Example 12 was diluted to 5 μg/ml with 0.1 M sodium carbonate buffer (pH 9.5), and the resulting solution was added to a 96-well plate (manufactured by Nalge Nunc International, Inc., Cat. No. 430341) at 100 μl/well. After the plate had been left at room temperature for 1 hour, the solution was removed and a washing buffer (phosphate-buffered saline containing 0.05% Tween 20) was added at 300 μl/well and then removed. After this washing procedure had been performed one more time, phosphate-buffered saline containing 25% BlockAce (manufactured by Dainippon Sumitomo Pharma Co., Ltd.) was added at 200 μl/well, and the plate was left at room temperature for 1 hour, whereby blocking was performed. The liquid was removed, and the plate was washed twice with 300 μl/well of the washing buffer. […] After developing the color, an absorbance at 492 nm was measured using a microplate reader (manufactured by Nihon Molecular Devices Corporation).

[2] = biological target: T2, human Siglec-15 V-set domain (human, UniProt Q6ZMC9 39-165); assay: competitive ELISA: V-set domain (0 to 20 µg/ml) pre-mixed with #32A1 (2 µg/ml), then added to captured human Siglec-15-Fc
T2 construct: The His tag was cleaved with thrombin before use; also called human V-set domain
T2 sequence: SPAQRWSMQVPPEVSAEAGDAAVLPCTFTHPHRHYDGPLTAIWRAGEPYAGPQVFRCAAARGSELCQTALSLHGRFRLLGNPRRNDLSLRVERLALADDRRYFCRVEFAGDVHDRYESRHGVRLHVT
Method: In a 96-well maxi-sorp plate (manufactured by Nunc, Inc., model number: 442404), 100 μl of a goat anti-human Fc antibody (Jackson ImmunoResearch, Inc., model number: 109-005-098) (1.25 μg/ml) was added to each well and immobilized overnight at 4° C. After the 96-well maxi-sorp plate was washed twice with PBS, 100 μl of the soluble human Siglec-15-Fc (1 μg/ml) was added to each well and immobilized at room temperature for 1 hour. Thereafter, 300 μl of a 5% skim milk/PBS solution was added to each well, and blocking of the wells was performed at room temperature for 3 hours. In the meantime, 2 μg/ml of the rat anti-mouse Siglec-15 monoclonal antibody #32A1 was mixed with an equivalent amount of 0, 0.032, 0.16, 0.8, 4, or 20 μg/ml of the human Siglec-15 V-set domain, and a reaction was allowed to proceed at room temperature for 1.5 hours. After the 96-well maxi-sorp plate had been washed twice with PBS, 100 μl of the mixed solution of the rat anti-mouse Siglec-15 monoclonal antibody #32A1 and the human Siglec-15 V-set domain was added thereto, and a reaction was allowed to proceed at room temperature for 1 hour. […] Then, 100 μl of a reaction stopping solution was added thereto, and an absorbance at 405 nm was measured.

human Siglec-15-Fc [3] = biological target: T1, human Siglec-15-Fc; assay: ELISA, human Siglec-15-Fc immobilized at 1 µg/ml, antibody 1 to 0.004 µg/ml, fluorescence read-out

binding result (human Siglec-15-Fc [1]): binds | binding result [2]: binds
B1: rat anti-mouse Siglec-15 monoclonal antibody #32A1 (antibody, rat IgG2a, V domains shown)
VH: EVQILETGGGLVKPGGSLRLSCATSGFNFNDYFMNWVRQAPEKGLEWVAQIRNKIYTYATFYAESLEGRVTISRDDSESSVYLQVSSLRAEDTAIYYCTRSLTGGDYFDYWGQGVMVTVSL
VL: DIVLTQSPALAVSLGQRATISCRASQSVTISGYSFIHWYQQKPGQQPRLLIYRASNLASGIPARFSGSGSGTDFTLTINPVQADDIATYFCQQSRKSPWTFAGGTKLELRRA
notes: Whole rat IgG purified from nude mouse ascites; Cloning primers were designed from the rat IgG2a heavy chain and kappa light chain constant regions; also called #32A1 antibody; rat #32A1 antibody

binding result (human Siglec-15-Fc [3]): binds
B2: h#32A1-T1 (antibody, human IgG1, kappa, V domains shown)
VH: EVQLVESGGGLVQPGGSLRLSCAASGFNFNDYFMNWVRQAPGKGLEWVAQIRNKIYTYATFYAESLEGRFTISRDNAKNSLYLQMNSLRAEDTAVYYCARSLTGGDYFDYWGQGTLVTVSS
VL: DIVMTQSPDSLAVSLGERATINCRASQSVTISGYSFIHWYQQKPGQPPKLLIYRASNLASGVPARFSGSGSGTDFTLTISSLQAEDVAVYYCQQSRKSPWTFGGGTKVEIKR
notes: Human IgG1 / kappa constant regions; also called humanized antibody of rat anti-mouse Siglec-15 #32A1 T1; h#32A1-T1H / h#32A1-T1L

binding result (human Siglec-15-Fc [3]): binds
B3: h#32A1-T6 (antibody, human IgG1, kappa, V domains shown)
VH: B2 VH with L4V, A24T, G42E, F70V, A77S, N79S, S80T, L81V, N86S, A99T
VL: B2 VL with M4L, N22S, K49R, V62I, V89T, Y91F, G103A
notes: Human IgG1 / kappa constant regions; also called humanized antibody of rat anti-mouse Siglec-15 #32A1 T6; h#32A1-T6H / h#32A1-T6L

binding result (human Siglec-15-Fc [3]): binds
B4: h#32A1-T2 (antibody, human IgG1, kappa, V domains shown)
VH: B2 VH with G42E, F70V, N86S
VL: B2 VL with N22S, K49R, Y91F, G103A
notes: Human IgG1 / kappa constant regions; also called humanized antibody of rat anti-mouse Siglec-15 #32A1 T2; h#32A1-T2H / h#32A1-T2L

binding result (human Siglec-15-Fc [3]): binds
B5: h#32A1-T5 (antibody, human IgG1, kappa, V domains shown)
VH: B2 VH with L4V, A24T, A77S, N79S, S80T, L81V, A99T
VL: B2 VL with M4L, V62I, V89T, G104Q
notes: Human IgG1 / kappa constant regions; also called humanized antibody of rat anti-mouse Siglec-15 #32A1 T5; h#32A1-T5H / h#32A1-T5L

binding result (human Siglec-15-Fc [3]): binds
B6: h#32A1-T3 (antibody, human IgG1, kappa, V domains shown)
VH: B1 VH with L5V, T7S, K13Q, V85M, I95V, V115T, M116L, L121S
VL: B2 VL with M4L, N22S, P47Q, K49R, V62I, V89T, Y91F, G103A
notes: Human IgG1 / kappa constant regions; also called humanized antibody of rat anti-mouse Siglec-15 #32A1 T3; h#32A1-T3H / h#32A1-T3L
